Data as given in patent US20180188195A1, “SYSTEMS AND METHODS FOR MULTIPLEXED HEMOSTASIS TEST PANELS” (T2 Biosystems, Inc., priority 2015, published 2018).

Experiments:
Assay type in all cases: cell-based, human
citrated whole blood [1] = test: T2In T2MR clotting time, intrinsic pathway activator (ellagic acid); conditions: T2In, 3 donors, different tPA concentrations, with or without aprotinin
Text: In another embodiment a coagulopathy panel is used with an intrinsic activator such as ellagic acid. The common range of clotting time is often between 100 and 120 seconds for normal blood. However, it can be 22-30 seconds, 30-44 seconds, 44-60 seconds, 60-80 seconds, 80-100 seconds, up to 2 times to 4 times the range of normal T2MR clotting times for the extrinsic activator. The abnormal clotting time ranges are above or below the normal range. The total range easily measured is 8-300 seconds though a measurement up to or beyond 1000 seconds could be performed with modified acquisition. If aprotinin is added in addition to intrinsic activator, clotting times can often be from 110.9-151.0 seconds in normal blood.
The general intrinsic activator protocol is as follows (T2In panel): an intrinsic activator solution was prepared by mixing tissue factor reagent with CaCl2. To 36.7 μL of citrated whole blood (warmed to approximately 37° C. for 3 minutes and mixed) was added 5 μL of the intrinsic activator solution (also been warmed to approximately 37° C. for one minute). The resulting solution was mixed and subjected to T2 measurements for 50 minutes. […] The T2MR of the sample was measured for 30 minutes.
The T2Ex or the T2In protocols were also used with the addition of aprotinin (T2Ex-A and T2In-A) respectively. […] The sample was mixed and read in the T2reader. […]

citrated whole blood [2] = test: T2In platelet activity and fibrinolysis measurement with tPA or aprotinin; conditions: ellagic acid with CaCl2; tPA 0, 2 or 4 nM or aprotinin control; 65 min
Description: The T2Ex or the T2In protocols were also used with the addition of aprotinin (T2Ex-A and T2In-A) respectively. For the intrinsic pathway measurement (T2In), intrinsic activator solution was prepared by mixing ellagic acid stock and CaCl2. For the intrinsic pathway measurement that includes aprotinin (T2In-A), add 41.7 μL of a 1 mg/mL stock of aprotinin to 1 mL intrinsic activator solution. 36.7 μL citrated whole blood that had been warmed to approximately 37° C. for three minutes was added and mixed. 5 μL of intrinsic activator solution with aprotinin that had been warmed to approximately 37° C. for one minute was added. The sample was mixed and read in the T2reader. The clotting time measurement was obtained after 5 minutes and then the platelet activity and fibrinolysis measurements were obtained over the following 60 minutes. In a separate assay the effects of the amounts of activator were tested.
Platelet activity and fibrinolysis measurements for the 3 donor samples in the T2In assay are shown in FIG. 15a-15b. tPA levels of 0 nM, 2 nM or 4 nM were added to citrated whole blood. Blood samples (36.7 μL) were activated by addition of 5 μL ellagic acid solution with CaCl2. T2MR data was collected for 65 min. The addition of tPA cleaves the fibrin mesh of the clot and results in clot dissolution over time. This is detected by T2MR by the change in T2 value of the serum peak (third phase). […]

[3] = test system: re-calcified citrated whole blood; test: T2MR fibrinolysis of thrombin-clotted re-calcified citrated blood after tPA addition
Description: In one embodiment, blood clotting was initiated by addition of 2 μL of a 0.2 M CaCl2 solution and 2 μL of thrombin (Sigma-Aldrich, St. Louis, Mo., final concentration 0.1-3.0 U/ml) to 34 μL of blood in a 200 μL PCR tube (Eppendorf, Hauppauge, N.Y.). All components were pre-warmed for 1 min at 37° C. before mixing. Samples were mixed by three aspiration and dispersion cycles using a pipette, then put into the T2MR reader for measurement. Typical run length was 30 min with a 10 sec sampling rate. For some experiments, data collection time was extended to 1 hr.
To establish T2MR signatures for fibrinolysis, tissue plasminogen activator (tPA, Alteplase, Genentech, South San Francisco, Calif.) was added to samples clotted by thrombin. Blood clotting was initiated as described above, and the sample was incubated for […] to allow for complete clot contraction. Then, 0.5-1 μM tPA was added to clotted and contracted samples. Care was taken not to disturb clots, which were usually attached to the tube wall. The pipette tip was carefully placed into the visible serum layer on the tube side opposite to the contracted clot, and 3 μL of tPA solution was added with a single dispensing of the pipettor. The tPA solutions were made from a stock solution prepared according to manufacturer instructions using 0.15 M sodium chloride, pH 7.4.
In one embodiment, the dependencies of the T2MR signals during clotting of re-calcified citrated blood samples from healthy donors initiated by adding 3 U/ml thrombin was measured. Thrombin activates platelets and cleaves fibrinogen to form a three-dimensional fibrin network stabilized by factor XIIIa. Addition of thrombin led to rapid formation of a gelatinous meshwork that filled the sample volume accompanied by a small, rapid decrease in the T2MR signal over tens of seconds due to the sample transitioning from a liquid to gel state. In the initial gel state, only one relaxation rate was observed (FIG. 2, part a), reflecting uniform distribution of erythrocytes and other blood components. Approximately four minutes after thrombin addition, the T2MR signal split into two peaks representing distinct water populations in slow exchange with each other. […]
We then assessed the sensitivity of the T2MR platform to fibrinolysis by adding tissue-type plasminogen activator (tPA) to the clotted samples 30 minutes after thrombin.
The compartment generating the signal in FIG. 2, part b, at 300 ms that dropped to 200 ms was assessed by testing two conditions: (1) re-calcified citrated whole blood activated with thrombin to form a contracted clot and (2) re-calcified citrated whole blood activated with thrombin followed by addition of tPA. After incubation, samples were analyzed before and after mixing with a pipette to re-suspend unbound erythrocytes. […]

citrated blood [4] = test: T2MR clot strength (DiffT2), calcium and kaolin activation of abciximab-treated citrated blood; conditions: abciximab 4 or 8 μg/ml added ex vivo; 13 minutes after activation; 3 healthy donors
Description: (§1) The DiffT2 value was calculated by taking the difference between the upper and middle T2 values in the T2MR signature at a time point 13 minutes after activation. Data are shown here using samples from 3 healthy donors where clot strength was adjusted by ex vivo addition of abciximab (ReoPro) at a level of 0, 4, or 8 μg/ml prior to measurement. All samples containing abciximab were at DiffT2 values of <100 ms or TEG MA values less than 40.
(§2) A 0.5 mg/ml solution of abciximab was prepared by diluting the stock 10 mg/5 ml solution by 1:4 in saline. The abciximab-treated blood samples were incubated for at least 5 min prior to clotting. Clotting was initiated by adding 2 μL 0.2 M CaCl2 and 2 μL TEG kaolin to 34 μL of abciximab-treated blood sample. To compare the T2MR signal to TEG MA, a DiffT2 parameter was calculated by taking the difference in T2 between the upper and middle peaks at a time point 13 min after adding calcium and kaolin. The TEG MA values were measured on the same samples following manufacturer instructions.
(§3) For comparison between T2MR and TEG, calcium and kaolin activation of citrated blood was used and normal donor samples were treated with various amounts of abciximab, an inhibitor of the platelet glycoprotein αIIbβ3 receptor that binds fibrin and is essential for clot contraction.

citrated blood [5] = test: Thromboelastography maximum amplitude (TEG MA) on the same abciximab-treated samples; conditions: abciximab 4 or 8 μg/ml added ex vivo; 3 healthy donors
Description: as §1, §2, §3

citrated whole blood [6] = test: T2In intrinsic assay for platelet activity, ReoPro titration
Description: Citrated whole blood from normal donors was spiked with varying concentrations of the platelet inhibitor ReoPro (Abcixirnab). 5 μL of ellagic acid solution with CaCl2 was used to activate 36.7 μL of blood with or without ReoPro inhibition. T2MR data was collected for 35 minutes. Addition of platelet inhibitor had no effect on T2MR measured clot time or % deltaT2. […] There was some donor to donor differences in responsiveness to ReoPro.

[7] = tPA added 30 minutes after thrombin
[8] = ellagic acid with CaCl2, varying ReoPro concentrations

Molecule	clotting time curves (% deltaT2) (citrated whole blood [1])	change in T2 value of the serum peak (third phase) (citrated whole blood [2])	200-300 ms signal after mixing ([3]; clotted with thrombin then lysed with tPA, mixed with a pipette)	T2 value of the upper peak after tPA addition [3, 7]	third peak at ~100 ms after tPA addition [3, 7]	T2 value of the middle peak after tPA addition ([3]; tPA added 30 minutes after thrombin, decreased from 250) [ms]	DiffT2 (citrated blood [4]) [ms]	TEG MA (citrated blood [5])	effect on % deltaT2 (citrated whole blood [6]; [8])	effect on T2MR measured clot time (citrated whole blood [6]; [8])	platelet activity measurement (FIG. 27) (citrated whole blood [6]; intrinsic activator, 5 μg/mL and 10 μg/mL ReoPro)
tPA: tissue plasminogen activator (tPA, Alteplase, Genentech), inducer of fibrinolysis (protein, UniProt P00750 36-562, looked up, alteplase) Tissue-type plasminogen …: SYQVICRDEKTQMIYQQHQSWLRPVLRSNRVEYCWCNSGRAQCHSVPVKSCSEPRCFNGGTCQQALYFSDFVCQCPEGFAGKCCEIDTRATCYEDQGISYRGTWSTAESGAECTNWNSSALAQKPYSGRRPDAIRLGLGNHNYCRNPDRDSKPWCYVFKAGKYSSEFCSTPACSEGNSDCYFGNGSAYRGTHSLTESGASCLPWNSMILIGKVYTAQNPSAQALGLGKHNYCRNPDGDAKPWCHVLKNRRLTWEYCDVPSCSTCGLRQYSQPQFRIKGGLFADIASHPWQAAIFAKHRRSPGERFLCGGILISSCWILSAAHCFQERFPPHHLTVILGRTYRVVPGEEEQKFEVEKYIVHKEFDDDTYDNDIALLQLKSDSSRCAQESSVVRTVCLPPADLQLPDWTECELSGYGKHEALSPFYSERLKEAHVRLYPSSRCTSQHLLNRTVTDNMLCAGDTRSGGPQANLHDACQGDSGGPLVCLNDGRMTLVGIISWGLGCGQKDVPGVYTKVTNYLDWIRDNMRP	appear to overlay	larger change	disappeared altogether	decreased rapidly	persisted	175					
abciximab (antibody, chains of the INN, looked up, V domains shown, Fab) VH: EVQLQQSGTVLARPGASVKMSCEASGYTFTNYWMHWVKQRPGQGLEWIGAIYPGNSDTSYIQKFKGKAKLTAVTSTTSVYMELSSLTNEDSAVYYCTLYDGYYVFAYWGQGTLVTVSA VL: EIVLTQSPVTLSVTPGDSVSLSCRASRDISNNLHWFQQTSHESPRLLIKYASQSMSGIPSRFSGSGSGTDFTLSINSVETEDFGMYFCQQTNSWPYTFGGGTKLEIK							< 100	less than 40	no effect	no effect	inhibition of platelet activity
